Test results taken from paper PMC11724365, “Novel archaeal ribosome dimerization factor facilitating unique 30S–30S dimerization” (Nucleic Acids Research, 2025).

Target: the molecule itself
Assay: cryo-EM structure; 1 uM P. furiosus 30S subunits with 5 uM aRDF (1:5) in 20 mM HEPES-KOH pH 7.0, 12 mM MgCl2, 100 mM NH4Cl, 0.5 mM EDTA; 15 min at 70 °C before freezing; Structures I and II at 3.2 Å

B1: archaeal ribosome dimerization factor (aRDF) (natural protein, Pyrococcus furiosus)
chain: MKVVGIKGSVSYLQALKYLKTKKVTKRLKEIEKLVDTLITLAPYAPEGSKIETIRKNYAKISFNKIKTVSRSKIGSPRIKSIMLLLWNFGLLDVKIIENSWYVRKTKLASLLEENFKDLSPSEKLKVYLLGGLLVDTPARFVYRCTLNGVEDYKGVKKAILGYLSDQRSNSLIIGLSNMLESIKFIEEAQAYSGKKEYIGLVDVAFYGLSGLYLDVKRESGKLTVKPNFRELRALYEIDKSVATGSDYGLSISKEILENLANTKRRKTIFSEEVQELLVNVIKENAISISQDLQNMYGII
notes: aRDF (PF0560 protein) of Pyrococcus furiosus; modelled in PDB 9FNY and 9FNZ with poorly defined loops omitted; Forms homodimers (monomers A and B); two homodimers bridge two 30S subunits in the cryo-EM structures; also called PF0560; PF0560 protein; source: E. coli BL21(DE3), purified (heat treatment, Ni-NTA, heparin)
  stoichiometry N: 2
